Columns and labels:
Test in all cases: fluorescence polarisation
[1] = target: HIM-3 closure motif peptide with the S282A substitution (C. elegans)
[2] = target: HIM-3 closure motif peptide phosphorylated at Tyr279 (C. elegans)
[3] = target: HIM-3 closure motif peptide, unmodified (wild type) (C. elegans)

## HTP-2 protein (full length) (natural protein)
[1]
  Kd: 11.3 µM
[2]
  Kd: 16.1 µM
[3]
  Kd: 5.8 µM
